Results on 35 molecules are retold here after US20260151494A1.

The target in experiment [1] is apical domain of CD71 (Screen 3: 'cynomolgus apical domain of human CD71') (cynomolgus (as paragraph 454 words it; ambiguous)). The experiment is described as follows: primary ELISA.
Experiment [2] has the same target. The experiment is described as follows: primary ELISA, RLU ratio to HSA.
Experiment [3] addresses human serum albumin (human) (UniProt P02768). The experiment is described as follows: primary ELISA of colonies, luminescence; negative control antigen. (An ELISA detects its analyte on a solid surface through an enzyme-linked reagent.)

Sequence of human serum albumin (human) (P02768 25-609 limits assumed): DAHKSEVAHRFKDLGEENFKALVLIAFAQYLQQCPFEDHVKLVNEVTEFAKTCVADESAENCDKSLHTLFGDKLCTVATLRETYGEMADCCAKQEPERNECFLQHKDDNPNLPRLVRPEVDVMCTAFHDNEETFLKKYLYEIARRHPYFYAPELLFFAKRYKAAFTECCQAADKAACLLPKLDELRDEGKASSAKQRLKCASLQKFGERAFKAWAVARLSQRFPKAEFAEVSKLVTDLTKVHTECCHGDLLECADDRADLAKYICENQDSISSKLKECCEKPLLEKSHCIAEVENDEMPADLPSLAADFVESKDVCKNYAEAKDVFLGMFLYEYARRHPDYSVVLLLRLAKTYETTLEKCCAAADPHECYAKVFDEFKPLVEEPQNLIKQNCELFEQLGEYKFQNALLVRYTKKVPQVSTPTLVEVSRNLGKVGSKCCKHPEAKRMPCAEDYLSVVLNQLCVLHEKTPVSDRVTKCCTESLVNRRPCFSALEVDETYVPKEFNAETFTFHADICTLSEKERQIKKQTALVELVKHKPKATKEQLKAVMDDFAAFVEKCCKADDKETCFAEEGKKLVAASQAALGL

B1: CD71-binding FN3 domain SEQ ID NO: 283 (designed binder)
chain: MSLPAPKNLVVSRVTEDSARLSWTAPDAAFDSFEIAYQELSLWGEAIVLTVPGSERSYDLTGLKPGTEYYVHIGGVKGGIWSSPLSAYSTT
Turning to B1, in experiment [1], the RLU worked out at 6.14e+06 RLU. Moreover, the Apical domain:HSA in experiment [2] is 229.

B2: CD71-binding FN3 domain of SEQ ID NO: 105 (designed binder, not shown: small tags and cut ends)
chain: MLPAPKNLVVSRVTEDSARLSWTAPDAAFDSFHIVYHEPRPSGEAIWLWVPGSERSYDLTGLKPGTEYEVGIVSVKGGDLSVPLSAIFTT
Molecule B2 displayed an HSA, RLU in experiment [3] of 3000 RLU.

B3: CD71-binding FN3 domain of SEQ ID NO: 110 (designed binder, not shown: small tags and cut ends)
chain: MLPAPKNLVVSRVTEDSARLSWTAPDAAFDSFHIVYHEPRPSGEAIYLEVPGSERSYDLTGLKPGTEYEVGIVSVKGGDLSVPLRAHFTT
In experiment [3], B3 displayed an HSA, RLU of 2500 RLU.

B4: CD71-binding FN3 domain of SEQ ID NO: 114 (designed binder, not shown: small tags and cut ends)
chain: MLPAPKNLVVSRVTEDSARLSWTAPDAAFDSFHIVYHEPRPSGEAIWLFVPGSERSYDLTGLKPGTEYEVGIVSVKGGDLSVPLSAIFTT
B4 showed an HSA, RLU in experiment [3] of 11600 RLU.

B5: CD71-binding FN3 domain SEQ ID NO: 279 (designed binder)
chain: MSLPAPKNLVVSRVTEDSARLSWTAPDAAFDSFFIGYLEPQPPGEAIHLYVPGSERSYDLTGLKPGTEYNVTIQGVKGGNWSAPLSAIFTT
Take B5: the RLU in experiment [1] was found to be 5.54e+06 RLU. The Apical domain:HSA in experiment [2] worked out at 680.

B6: CD71-binding FN3 domain SEQ ID NO: 294 (designed binder)
chain: MSLPAPKNLVVSRVTEDSARLSWTAPDAAFDSFFIGYLEPQPLGEAIHLFVPGSERSYDLTGLKPGTEYNVTIQGVKGGFPSEPLIASFTT
On to B6, for which, in experiment [1], the RLU came to 7.4e+06 RLU. Further, the Apical domain:HSA in experiment [2] worked out at 245.

B7: CD71-binding FN3 domain SEQ ID NO: 281 (designed binder)
chain: MSLPAPKNLVVSRVTEDSARLSWTAPDAAFDSFFIGYLEPQPPGEAIALYVPGSERSYDLTGLKPGTEYNVTIQGVKGGFPSEPLIANFTT
On to B7, for which the RLU in experiment [1] amounted to 6.93e+06 RLU. For the same molecule, the Apical domain:HSA in experiment [2] was determined as 413.

B8: CD71-binding FN3 domain SEQ ID NO: 295 (designed binder)
chain: MSLPAPKNLVVSRVTEDSARLSWTAPDAAFDSFFIGYLEPQPPGEAIDLYVPGSERSYDLTGLKPGTEYNVTIQGVKGGFPSEPLVATFTT
In the case of B8, the RLU in experiment [1] is 6.71e+06 RLU. The Apical domain:HSA in experiment [2] was found to be 474.

B9: CD71-binding FN3 domain SEQ ID NO: 290 (designed binder)
chain: MSLPAPKNLVVSRVTEDSARLSWTAPDAAFDSFFIGYLEPQPPGEAIHLYVPGSERSYDLTGLKPGTEYNVTIQGVKGGFPSEPLVATFTT
On to B9, for which, in experiment [1], the RLU was found to be 6.87e+06 RLU. Besides, in experiment [2], the Apical domain:HSA was determined as 158.

B10: CD71-binding FN3 domain SEQ ID NO: 293 (designed binder)
chain: MSLPAPKNLVVSRVTEDSARLSWTAPDAAFDSFFIGYLEPQPPGEAIDLYVPGSERSYDLTGLKPGTEYNVTIQGVKGGFPSHPLVATFTT
With B10, in experiment [1], the RLU stood at 6.72e+06 RLU. Moreover, the Apical domain:HSA in experiment [2] turned out to be 605.

B11: CD71-binding FN3 domain of SEQ ID NO: 100 (designed binder, not shown: small tags and cut ends)
chain: MLPAPKNLVVSRVTEDSARLSWTAPDAAFDSFYIAYAEPRPDGEAILLLVPGSERSYDLTGLKPGTEYSVLIHGVKGGLLSSPLVASFTT
B11 had an HSA, RLU in experiment [3] of 7750 RLU.

B12: CD71-binding FN3 domain of SEQ ID NO: 106 (designed binder, not shown: small tags and cut ends)
chain: MLPAPKNLVVSRVTEDSARLSWTAPDAVFDSFYIAYAEPRPDGEAIGLYVPGSERSYDLTGLKPGTEYSVLIHGVKGGLLSSPLTASFTT
In experiment [3], B12 showed an HSA, RLU of 2550 RLU.

B13: CD71-binding FN3 domain of SEQ ID NO: 116 (designed binder, not shown: small tags and cut ends)
chain: MLPAPKNLVVSRVTEDSARLSWTAPDAAFDSFYIAYAEPRPDGEAILLLVPGSERSYDLTGLKPGTEYSVLIHGVKGGLLSSPLIAGFTT
On to B13, for which, in experiment [3], the HSA, RLU worked out at 2750 RLU.

B14: CD71-binding FN3 domain of SEQ ID NO: 108 (designed binder, not shown: small tags and cut ends)
chain: MLPAPKNLVVSRVTEDSARLSWTAPDAAFDSFYIAYAEPRPDGEAILLQVPGSERSYDLTGLKPGTEYSVLIHGVKGGLLSSPLVAKFTT
Turning to B14, the HSA, RLU in experiment [3] was 3350 RLU.

B15: CD71-binding FN3 domain of SEQ ID NO: 103 (designed binder, not shown: small tags and cut ends)
chain: MLPAPKNLVVSRVTEDSARLSWTAPDAAFDSFYIAYAEPRPDGEAIILGVPGSERSYDLTGLKPGTEYSVLIHGVKGGLLSSPLSAYSTT
Regarding B15, the HSA, RLU in experiment [3] was determined as 18200 RLU.

B16: CD71-binding FN3 domain SEQ ID NO: 277 (designed binder)
chain: MSLPAPKNLVVSRVTEDSARLSWTAPDAAFDSFEIGYFELTYYGEAIVLTVPGSERSYDLTGLKPGTEYWVQIGGVKGGGFSEPLSAIFTT
The molecule B16 had an RLU in experiment [1] of 5.75e+06 RLU. Further, the Apical domain:HSA in experiment [2] was determined as 383.

B17: CD71-binding FN3 domain SEQ ID NO: 282 (designed binder)
chain: MSLPAPKNLVVSRVTEDSARLSWTAPDAAFDSFDIGYFELTWYGEAIVLTVPGSERSYDLTGLKPGTEYWVSIGGVKGGRFSEPLYARFTT
As for B17, the RLU in experiment [1] was 4.85e+06 RLU. Also, the Apical domain:HSA in experiment [2] worked out at 365.

B18: CD71-binding FN3 domain SEQ ID NO: 296 (designed binder)
chain: MSLPAPKNLVVSRVTEDSARLSWTAPDAAFDSFDIGYFELTWYGEAIVLTVPGSERSYDLTGLKPGTEYWVSIGGVKGGIWSSPLSAIFTT
In experiment [1], B18 displayed an RLU of 4.82e+06 RLU. Moreover, the Apical domain:HSA in experiment [2] stood at 141.

B19: CD71-binding FN3 domain SEQ ID NO: 285 (designed binder)
chain: MSLPAPKNLVVSRVTEDSARLSWTATDAAFDSFEIGYWENAYKGEAIVLTVPGSERSYDLTGLKPGTEYVVFIGGVKGGVWSVPLSAIFTT
Turning to B19, the RLU in experiment [1] came to 5.13e+06 RLU. Also, the Apical domain:HSA in experiment [2] is 368.

B20: CD71-binding FN3 domain SEQ ID NO: 284 (designed binder)
chain: MSLPAPKNLVVSRVTEDSARLSWTAPDAAFDSFEIGYWENAYKGEAIVLTVPGSERSYDLTGLKPGTEYMVFIGGVKGGVWSVPLSAIFTT
On to B20, for which the RLU in experiment [1] is 4.41e+06 RLU. For the same molecule, the Apical domain:HSA in experiment [2] was 363.

B21: CD71-binding FN3 domain SEQ ID NO: 278 (designed binder)
chain: MSLPAPKNLVVSRVTEDSARLSWTAPDAAFDSFEIGYFENLYLGEAIVLTVPGSERSHDLTGLKPGTEYWVQIGGVKGGNWSAPLSAIFTT
B21: the RLU in experiment [1] stood at 5.1e+06 RLU. Also, the Apical domain:HSA in experiment [2] was determined as 641.

B22: CD71-binding FN3 domain SEQ ID NO: 292 (designed binder)
chain: MSLPAPKNLVVSRVTEDSARLSWTAPDAAFDSFEIGYWENAYKGEAIVLTVPGSERSYDLTGLKPGTEYVVFIGGVKGGVWSVSLSAIFTT
In turn, B22 had an RLU in experiment [1] of 5.29e+06 RLU. In addition, in experiment [2], the Apical domain:HSA came to 355.

B23: CD71-binding FN3 domain SEQ ID NO: 286 (designed binder)
chain: MSLPAPKNLVVSRVTEDSARLSWTAPDAAFDSFEIVYAEPVRFGEAIVLTVPGSERSYDLTGLKPGTEYWVQIGGVKGGEWSSPLSAIFTT
In experiment [1], B23 displayed an RLU of 5.31e+06 RLU. Besides, the Apical domain:HSA in experiment [2] is 262.

B24: CD71-binding FN3 domain SEQ ID NO: 289 (designed binder)
chain: MSLPAPKNLVVSRVTEDSARLSWTAPDAAFDSFEIAYFEIAWLGEAIVLTVPGSERSYDLTGLKPGTEYWVQIGGVKGGAYSTPLSAIFTT
B24: the RLU in experiment [1] turned out to be 5.2e+06 RLU. Moreover, in experiment [2], the Apical domain:HSA stood at 112.

B25: CD71-binding FN3 domain SEQ ID NO: 280 (designed binder)
chain: MSLPAPKNLVVSRVTEDSARLSWTALDAAFDSFEIGYFENLYLGEAIVLTVPGSERSYDLTGLKPGTEYWVQIGGVKGGNWSAPLSAIFTT
In the case of B25, the RLU in experiment [1] is 4.97e+06 RLU. Also, in experiment [2], the Apical domain:HSA was found to be 160.

B26: CD71-binding FN3 domain of SEQ ID NO: 101 (designed binder, not shown: small tags and cut ends)
chain: MLPAPKNLVVSRVTEDSARLSWTAPDAAFDSFGIGYWERRWYGEAIVLTVPGSERSYDLTGLKPGTEYEVTIRGVKGGGYSGPLSAIFTT
B26 came in with an HSA, RLU in experiment [3] of 4350 RLU.

B27: CD71-binding FN3 domain of SEQ ID NO: 117 (designed binder, not shown: small tags and cut ends)
chain: MLPAPKNLVVSRVTEDSARLSWTAPDAAFDSFFIGYLEPQPPGEAIWLLVPGSERSYDLTGLKPGTEYNVTIQGVKGGFPSTPLSAIFTT
In experiment [3], B27 came in with an HSA, RLU of 3750 RLU.

B28: CD71-binding FN3 domain of SEQ ID NO: 111 (designed binder, not shown: small tags and cut ends)
chain: MLPAPKNLVVSRVTEDSARLSWTAPDAAFDSFFIGYLEPQPPGEAISLWVPGSERSYDLTGLKPGTEYNVTIQGVKGGFPSIPLWAIFTT
On to B28, for which, in experiment [3], the HSA, RLU came out at 2600 RLU.

B29: CD71-binding FN3 domain of SEQ ID NO: 104 (designed binder, not shown: small tags and cut ends)
chain: MLPAPKNLVVSRVTEDSARLSWTAPDAAFDSFFIGYLEPQPPGEAIHLIVPGSERSYDLTGQKPGTEYNVTIQGVKGGFPSDPLVASFTT
Take B29: the HSA, RLU in experiment [3] was 29400 RLU.

B30: CD71-binding FN3 domain of SEQ ID NO: 109 (designed binder, not shown: small tags and cut ends)
chain: MLPAPKNLVVSRVTEDSARLSWTAPDAAFDSFFIGYLEPQPPGEAIILHVPGSERSYDLTGLKPGTEYNVTIQGVKGGFPSLPLNANFTT
Turning to B30, the HSA, RLU in experiment [3] is 3250 RLU.

B31: CD71-binding FN3 domain of SEQ ID NO: 115 (designed binder, not shown: small tags and cut ends)
chain: MLPAPKNLVVSRVTEDSARLSWTAPDAAFDSFFIGYLEPQPPGEAIDLYVPGSERSYDLTGLKPGIEYNVTIQGVKGGFPSLPLQAHFTT
For B31, the HSA, RLU in experiment [3] was found to be 5200 RLU.

B32: CD71-binding FN3 domain of SEQ ID NO: 113 (designed binder, not shown: small tags and cut ends)
chain: MLPAPKNLVVSRVTEDSARLSWTAPDAAFDSFFIGYLEPQPPGEAIYLLVPGSERSYDLTGLKPGTEYNVTIQGVKGGFPSDPLSAIFTT
Turning to B32, in experiment [3], the HSA, RLU was found to be 2800 RLU.

B33: CD71-binding FN3 domain of SEQ ID NO: 112 (designed binder, not shown: small tags and cut ends)
chain: MLPAPKNLVVSRVTEDSARLSWTAPDAAFDSFFIGYLEPQPPGEAIDLWVPGSERSYDLTGLKPGTEYNVTIQGVKGGFPSMPLSAIFTT
As for B33, in experiment [3], the HSA, RLU worked out at 2650 RLU.

B34: CD71-binding FN3 domain of SEQ ID NO: 107 (designed binder, not shown: small tags and cut ends)
chain: MLPAPKNLVVSRVTEDSARLSWTAPDAAFDSFFIGYLEPQPPGEAIGLQVPGSERSYDLTGLKPGTEYNVTIQGVKGGFPSMPLSAIFTT
Regarding B34, the HSA, RLU in experiment [3] was found to be 3250 RLU.

B35: CD71-binding FN3 domain of SEQ ID NO: 102 (designed binder, not shown: small tags and cut ends)
chain: MLPAPKNLVVSRVTEDSARLSWTAPDAAFDSFDIGYTEYGGYGEAIILQVPGSERSYDLTGLKPGTEYWVLIQGVKGGGSSVPLVAYFTT
On to B35, for which the HSA, RLU in experiment [3] worked out at 4550 RLU.
